The target of test [1] is T1, integrin αvβ3 (human, UniProt P06756 31-1048; P05106 27-788). Kind of test: cell-based or functional assay.
Test [2] addresses T1, integrin αvβ3. Description: HUVEC adhesion to immobilized peptide with function blocking antibodies. As for the experimental part:
RGD peptides (P-1, P-2, P-3, P-4, P-5, and P-C) were immobilized (100 μg/ml) to wells. HUVEC, HMVEC, HRMVEC, and HDF cells were suspended in adhesion buffer (RPMI containing 1 mM MgCl2, 0.2 mM MnCl2 and 0.5% BSA) and 1×10^5 cells were seeded into the wells in the presence or absence of P4C10, LM609, P1F6 or control antibodies (100 μg/ml). Cells were allowed to attach for 25 min at 37° C. Media containing non-attached cells was aspirated and attached cells were washed with PBS and stained with crystal violet. Cell adhesion was quantified by measuring the optical density of eluted dye. Adhesion assays were completed at least three times with triplicate wells.
It is well established that multiple integrins recognize RGD amino acid motifs within ECM proteins. However, the ability of an integrin to bind distinct RGD epitopes depends in part on its orientation within the parent molecule and the C-terminal amino acid sequences flanking the RGD motif (25-27). Potential cell surface receptors that mediate interactions with the RGDKGE (SEQ ID NO. 1) containing collagen P-2 peptide were identified. The ability of endothelial cells to bind the RGD collagen peptides P-1 and P-2 in the presence or absence of function blocking anti-integrin antibodies was examined.

T1 sequence (P06756 31-1048, chain 1 of 2): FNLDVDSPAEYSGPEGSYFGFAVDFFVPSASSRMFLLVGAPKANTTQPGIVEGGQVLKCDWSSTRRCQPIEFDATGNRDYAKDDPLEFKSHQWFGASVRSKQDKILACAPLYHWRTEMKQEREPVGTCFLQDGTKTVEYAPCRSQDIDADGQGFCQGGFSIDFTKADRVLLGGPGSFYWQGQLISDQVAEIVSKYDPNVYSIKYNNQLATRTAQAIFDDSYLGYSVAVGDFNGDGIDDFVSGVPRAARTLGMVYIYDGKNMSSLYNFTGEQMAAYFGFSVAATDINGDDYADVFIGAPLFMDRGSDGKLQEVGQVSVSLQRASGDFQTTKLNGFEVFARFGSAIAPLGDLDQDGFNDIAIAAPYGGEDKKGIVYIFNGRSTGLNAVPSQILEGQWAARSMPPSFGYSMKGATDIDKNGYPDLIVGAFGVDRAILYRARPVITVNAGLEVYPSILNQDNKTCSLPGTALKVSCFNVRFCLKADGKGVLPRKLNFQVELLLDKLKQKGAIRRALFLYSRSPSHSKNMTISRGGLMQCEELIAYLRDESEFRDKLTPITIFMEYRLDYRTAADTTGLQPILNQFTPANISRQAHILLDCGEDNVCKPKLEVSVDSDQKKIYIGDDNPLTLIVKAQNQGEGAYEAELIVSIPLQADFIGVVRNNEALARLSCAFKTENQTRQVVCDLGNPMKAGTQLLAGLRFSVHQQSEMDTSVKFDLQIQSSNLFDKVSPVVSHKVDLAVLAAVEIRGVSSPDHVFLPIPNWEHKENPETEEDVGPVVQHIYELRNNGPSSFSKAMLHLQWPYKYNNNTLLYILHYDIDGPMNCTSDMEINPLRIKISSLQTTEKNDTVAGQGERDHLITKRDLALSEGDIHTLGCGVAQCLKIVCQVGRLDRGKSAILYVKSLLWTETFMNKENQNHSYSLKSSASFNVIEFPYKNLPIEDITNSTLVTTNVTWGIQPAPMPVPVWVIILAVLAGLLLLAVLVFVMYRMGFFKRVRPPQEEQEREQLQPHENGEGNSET
T1 sequence (P05106 27-788, chain 2 of 2): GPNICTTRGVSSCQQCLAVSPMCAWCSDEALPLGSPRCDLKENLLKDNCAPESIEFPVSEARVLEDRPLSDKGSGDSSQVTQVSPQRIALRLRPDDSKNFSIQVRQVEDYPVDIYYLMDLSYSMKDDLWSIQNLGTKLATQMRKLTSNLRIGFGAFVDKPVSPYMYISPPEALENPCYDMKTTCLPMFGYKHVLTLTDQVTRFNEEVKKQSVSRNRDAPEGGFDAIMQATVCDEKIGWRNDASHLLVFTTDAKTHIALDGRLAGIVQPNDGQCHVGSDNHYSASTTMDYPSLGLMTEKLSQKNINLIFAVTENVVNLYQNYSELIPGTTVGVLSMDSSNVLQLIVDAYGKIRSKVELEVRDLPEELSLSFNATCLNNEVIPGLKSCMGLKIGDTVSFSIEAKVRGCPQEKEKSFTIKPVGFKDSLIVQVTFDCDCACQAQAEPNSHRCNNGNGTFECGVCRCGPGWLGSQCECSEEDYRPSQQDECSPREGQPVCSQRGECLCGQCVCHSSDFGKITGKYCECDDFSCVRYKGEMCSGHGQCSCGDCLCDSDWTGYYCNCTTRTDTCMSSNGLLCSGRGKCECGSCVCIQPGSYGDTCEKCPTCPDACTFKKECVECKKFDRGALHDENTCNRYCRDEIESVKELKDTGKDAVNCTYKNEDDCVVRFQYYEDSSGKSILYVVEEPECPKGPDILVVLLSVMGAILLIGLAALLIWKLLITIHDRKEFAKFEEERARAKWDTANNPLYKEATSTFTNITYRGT

Turning to CQGPRGDKGEC [Synthetic collagen RGD containing peptide P-2 (CQGPRGDKGEC)], in the test with integrin αvβ3 [1], the “Src phosphorylation (Western blot of HUVEC attached to the peptide, serum free)” value was approximately 2 fold and the “β3-integrin phosphorylation (Western blot of HUVEC attached to the peptide, no growth factors)” value is more than 3 fold.
Turning to CKGDRGDAPGC (2) [Synthetic collagen RGD containing peptide P-1 (CKGDRGDAPGC)], the binding result with integrin αvβ3 [2] is “binds”.

The record behind these values is patent publication US20210100901A1 (MAINE MEDICAL CENTER RESEARCH INSTITUTE, published 2021).
